Biological target: T1, NF-kB p50 (NFKB1) (Homo sapiens) (UniProt P19838)
T1 sequence: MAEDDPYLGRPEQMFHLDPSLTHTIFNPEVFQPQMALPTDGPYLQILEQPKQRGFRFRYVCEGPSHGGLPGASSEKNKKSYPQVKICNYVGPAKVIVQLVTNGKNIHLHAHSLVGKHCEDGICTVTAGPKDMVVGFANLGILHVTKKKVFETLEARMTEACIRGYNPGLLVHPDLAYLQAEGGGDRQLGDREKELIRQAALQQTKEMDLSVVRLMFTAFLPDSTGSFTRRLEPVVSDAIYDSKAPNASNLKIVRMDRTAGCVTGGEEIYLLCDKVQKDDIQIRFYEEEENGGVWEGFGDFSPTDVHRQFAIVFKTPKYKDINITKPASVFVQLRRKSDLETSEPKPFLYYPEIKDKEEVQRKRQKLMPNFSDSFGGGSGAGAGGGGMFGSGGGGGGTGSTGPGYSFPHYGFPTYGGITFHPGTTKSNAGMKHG
Test: EMSA
Conditions: saturating p50 monomer (200 nM)

CGGAAAGTCCCTCATAGCT (double strand) [I (ODN2)/Cy5.5-XIX (ODN3)]
binding signal (% fluorescence co-migrating with p50) (internucleoside phosphotriester triethylene glycol amino linker after T8 of SEQ 1): 94

TGGAAAGCTTTTTACAGTT (double strand) [ODN4/Cy5.5-ODN5]
binding signal (% fluorescence co-migrating with p50) (internucleoside phosphotriester triethylene glycol amino linker after T12 of SEQ 2, truncated site): 63

From patent US20090136940
